The target of one series is T1, ROR1 on Jeko-1 cells (Homo sapiens, UniProt Q01973).
T1 construct: The Jeko-1 cell line, from mantle cell lymphoma, is a suspension cell line; host or cells: Jeko-1 (human mantle cell lymphoma)
Put plainly: Binding to ROR1-positive Jeko-1 cells (flow cytometry receptor binding assay). To be noted: 20 minutes on ice, PE secondary antibody. The method, then: The binding to tumor cells by antibodies Ab1 and 4A5, as well as ADC constructs derived from those antibodies (ADC-A and ADC-T), was evaluated. First, the binding of Ab1 to two ROR1-positive human tumor cell lines representing different cancer types was tested. The Jeko-1 cell line, from mantle cell lymphoma, is a suspension cell line, while the MDA-MB-231 cell line, from triple negative breast cancer, is an adherent cell line. The cell lines have different levels of ROR1 expression, with Jeko-1 cells displaying about 13507 cell surface copies and the MDA-MB-231 cells displaying about 21015 cell surface copies. The Jeko-1 (ATCC Cat. No. CRL-3006) and MDA-MB-231 (ATCC Cat. No. […]) cell lines were purchased from the American Type Culture Collection and were maintained according to the ATCC recommendations.
Jeko-1 cells (FIG. 2A) or MDA-MB-231 cells (FIG. 2B) were incubated with 0, 1, 10, 100, or 1000 ng/mL of Ab1 for 20 minutes on ice. After washing off unbound antibody, the cells were incubated with secondary anti-human IgG antibody labeled with phycoerythrin (PE) for an additional 20 minutes. The amount of PE fluorescence was measured using the BDFACS Verse analyzer and FlowJo V10 software. The PE signal for the highest concentration was used as the maximal binding signal to calculate the % maximal binding. EC50 was calculated using GraphPad Prism 7. […]

For another series, the system named is Mino. Put plainly: Cytotoxicity in vitro (CellTiter-Glo viability), Mino. Type of series: cell-based, human. To be noted: Mino (MCL), 72 hours. (In general: In ATP-based viability assays light output follows the ATP content of the culture.)
The subject of the next series is Jeko-1 MCL xenograft. Put plainly: Jeko-1 human MCL xenograft model (study 7). To be noted: 1 mg/kg ADC-N, ADC-P, ADC-R; 5 mg/kg ADC-A, ADC-L, ADC-M, ADC-S, ADC-T; IV Q4D. The format is in vivo, mouse. The method, then:
Jeko-1 (MCL) cells were engrafted subcutaneously into mice. When tumor size reached 100 mm^3, the mice were randomized into nine groups, 9 mice/group. The groups were vehicle control; 1 mg/kg ADC-N, ADC-P or ADC-R; or 5 mg/kg ADC-A, ADC-L, ADC-M, ADC-S, or ADC-T. The mice were dosed IV q4d.
For orientation: A xenograft is tissue or cells of one species grown in another, often human tumour cells in immunodeficient mice.

The source of these data is USRE50631E1, “ROR1 antibody immunoconjugates” (VelosBio Inc., priority 2017, dated 2025).

T1 sequence (Q01973 30-937): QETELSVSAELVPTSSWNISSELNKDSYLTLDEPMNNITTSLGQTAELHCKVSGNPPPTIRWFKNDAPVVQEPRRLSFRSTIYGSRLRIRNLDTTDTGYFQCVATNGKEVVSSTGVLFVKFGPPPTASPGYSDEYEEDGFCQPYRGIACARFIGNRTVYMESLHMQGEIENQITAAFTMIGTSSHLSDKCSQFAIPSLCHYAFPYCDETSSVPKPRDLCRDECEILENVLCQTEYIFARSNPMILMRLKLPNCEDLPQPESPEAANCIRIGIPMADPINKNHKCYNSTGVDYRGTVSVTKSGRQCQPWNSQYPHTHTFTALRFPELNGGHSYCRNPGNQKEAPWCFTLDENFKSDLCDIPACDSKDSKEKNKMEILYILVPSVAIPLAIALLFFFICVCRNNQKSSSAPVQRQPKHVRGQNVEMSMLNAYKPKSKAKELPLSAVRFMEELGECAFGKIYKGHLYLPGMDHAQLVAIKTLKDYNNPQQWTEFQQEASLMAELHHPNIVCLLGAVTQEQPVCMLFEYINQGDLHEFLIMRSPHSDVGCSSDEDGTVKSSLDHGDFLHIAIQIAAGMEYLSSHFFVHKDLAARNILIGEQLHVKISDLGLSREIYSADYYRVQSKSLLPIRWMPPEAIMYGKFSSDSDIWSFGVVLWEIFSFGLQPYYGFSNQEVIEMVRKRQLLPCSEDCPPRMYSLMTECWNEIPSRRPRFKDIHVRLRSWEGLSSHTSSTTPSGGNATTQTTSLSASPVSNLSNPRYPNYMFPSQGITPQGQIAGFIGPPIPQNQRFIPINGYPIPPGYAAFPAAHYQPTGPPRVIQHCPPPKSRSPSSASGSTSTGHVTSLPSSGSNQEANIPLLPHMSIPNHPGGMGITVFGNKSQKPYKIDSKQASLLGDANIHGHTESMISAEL
Method for Mino: Cells were cultured in log phase growth and distributed into 96-well plates. Each cell line was plated at a slightly different cell density, ranging from 5×10^3 to 50×10^4 cells/well. Cells in duplicate were incubated with 3-fold serial dilution of a particular immunoconjugate (10, 3.33, 1.11, 0.37, 0.12, 0.041, 0.014, and 0.0045 μM) for 72 hours at 37° C. and 5% CO2. After treatment, cells were incubated with an equal volume of CellTiter-Glo® reagent (Promega Inc.) for 15 minutes at room temperature and viability was determined by a luminometer. Curves and EC50 values were generated in GraphPad Prism using a sigmoidal dose response non-linear regression fit.
Cells were grown and distributed into 96-well plates as described in Example 5. Cells in duplicate were incubated with 3-fold serial dilution of a particular immunoconjugate (660, 220, 73.3, 24.4, 8.14, 2.71, 0.91, and 0.3 nM) for 72 hours at 37° C. and 5% CO2. In some experiments, cells were incubated with an immunoconjugate for 96 hours instead of 72 hours (values highlighted with “*”). After treatment, cell viability was determined as described in Example 5.

B1: D10: a lower affinity antibody that binds the same epitope as Ab1 (antibody, V domains shown)
VH: QVQLKESGPGLVAPSQTLSITCTVSGFSLTSYGVHWVRQPPGKGLEWLGVIWAGGFTNYNSALKSRLSISKDNSKSQVLLKMTSLQTDDTAMYYCARRGSSYSMDYWGQGTSVIVSS
VL: EIVLSQSPAITAASLGQKVTITCSASSNVSYIHWYQQRSGTSPRPWIYEISKLASGVPVRFSGSGSGTSYSLTISSMEAEDAAIYYCQQWNYPLITFGSGTKLEIQ
B1: the “EC50 of binding to cells” value with ROR1 on Jeko-1 cells stood at 0.25 µg/mL.

B2: ADC-S: D10 conjugated via MAL-VC-PAB to MMAE (conjugate)
VH: QVQLKESGPGLVAPSQTLSITCTVSGFSLTSYGVHWVRQPPGKGLEWLGVIWAGGFTNYNSALKSRLSISKDNSKSQVLLKMTSLQTDDTAMYYCARRGSSYSMDYWGQGTSVIVSS
VL: EIVLSQSPAITAASLGQKVTITCSASSNVSYIHWYQQRSGTSPRPWIYEISKLASGVPVRFSGSGSGTSYSLTISSMEAEDAAIYYCQQWNYPLITFGSGTKLEIQ
For the molecule B2, the “EC50 of binding to cells” value with ROR1 on Jeko-1 cells amounted to 0.15 µg/mL. In the series with Mino, this molecule displayed an EC50 of 83.3 nM. Also, the “tumor growth / average tumor size (interim results, day 14)” value in the series on Jeko-1 MCL xenograft is on record as “Significant tumor regression”.
